The source of these data is the supplement of paper PMC10724198.

± gives the standard deviation of the averaged measurements.
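Note: PSI is a weighted mean of sequencing reads over stability bins, variants kept only with over 10 reads, mCherry proximal and sfGFP distal, peptide attached via GGGS linker.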

In the data set the test system is Saccharomyces cerevisiae. Description: protein stability index of tFT-peptide fusion (C-terminal peptide) (PSI (0-1 scale)); higher = more stable (slower turnover). To be noted: genetic background: wild type; temperature: 30 C.
Regarding LAPSPTSRPIKC, the protein stability index amounted to 0.677 ± 0.018.
The result for LAPTPLAPSPPP reads 0.728 ± 0.055; that for LARTSVACEGLG, 0.703 ± 0.045; that for LASLVANSRNSL, 0.798 ± 0.27.
Under LATLLIRLLGQA stands 0.496 ± 0.0088; under LCAGASYTMTVP, 0.694 ± 0.021; under LCCMFGLAGRGV, 0.654 ± 0.0083.
The result for LCFPHDFFSSSS reads 0.7768 ± 0.0058; that for LCGALWGAARGE, 0.728 ± 0.019; that for LCKGCEGGVMQR, 0.666 ± 0.037.
For LCPSLSSPTSAT, the protein stability index amounted to 0.659 ± 0.029.
The result for LCPWRYAVLFSP reads 0.645 ± 0.068.
For the sequence LCRFPSSPQLPS, the protein stability index amounted to 0.7236 ± 0.0071.
The result for LCRLTNVCGAVV reads 0.6543 ± 0.004; that for LCSPKPASAPGH, 0.668 ± 0.032.
LCVLFVSKPTPE yielded a protein stability index of 0.67 ± 0.019.
Sequence LDLVFYMFSPFL returned a protein stability index of 0.618 ± 0.061.
Regarding LDTRTLGVLTVG, the protein stability index was found to be 0.633 ± 0.025.
In the case of LDVGSFLALRMR, the protein stability index was 0.627 ± 0.036.
Regarding LEPSDMDTDSDG, the protein stability index is 0.706 ± 0.018.
Under LESCFFGSFFFL stands 0.778 ± 0.091; under LESGSARLFLWI, 0.746 ± 0.16.
In turn, LEVVVVGGVGGG came in with a protein stability index of 0.687 ± 0.085.
Under LFAHPPSPPSAP stands 0.654 ± 0.016.
In turn, LFCHHCASLVDL showed a protein stability index of 0.722 ± 0.002.
LFDRFVAGVRYG yielded a protein stability index of 0.656 ± 0.021.
In turn, LFFFPRRLSPPT had a protein stability index of 0.722 ± 0.05.
Sequence LFFRLRSLLSRS yielded a protein stability index of 0.623 ± 0.0063.
The result for LFGIGFFSFICS reads 0.537 ± 0.074; that for LFGTGVRCGVCS, 0.637 ± 0.092; that for LFHHLAPRPAPP, 0.698 ± 0.051.
Sequence LFIGLAAVHAHY had a protein stability index of 0.687 ± 0.11.
Consider LFLFAPRPPPPP, for which the protein stability index was determined as 0.717 ± 0.03.
Take LFLSIRRFRCRL: the protein stability index amounted to 0.58 ± 0.057.
As for LFPALFWPTSTL, the protein stability index amounted to 0.743 ± 0.032.
As for LFQKRAIGGAWL, the protein stability index turned out to be 0.742 ± 0.039.
The sequence LFRFFPWPPPPA yielded a protein stability index of 0.682 ± 0.034.
Turning to LFRPTPPSFAPP, the protein stability index was determined as 0.683 ± 0.048.
The sequence LFSARRKSPTSL displayed a protein stability index of 0.708 ± 0.058.
Sequence LFSGPYRYKAYM gave a protein stability index of 0.7273 ± 0.0061.
LFSSLLLPNALR gave a protein stability index of 0.69 ± 0.038.
With LFVHTPCPFEVR, the protein stability index was 0.673 ± 0.023.
LFWFVSLWGGFA had a protein stability index of 0.529 ± 0.073.
The sequence LFYYLFRYFFPP registered a protein stability index of 0.548 ± 0.0094.
The sequence LGAWAGGGASSG gave a protein stability index of 0.704 ± 0.03.
Consider LGEDRVKYQKLW, for which the protein stability index was determined as 0.7234 ± 0.007.
Consider LGFGCVYCGEAW, for which the protein stability index stood at 0.689 ± 0.033.
In turn, LGFLSSLLCRSL displayed a protein stability index of 0.779 ± 0.068.
For LGGASNGCSTLK, the protein stability index amounted to 0.718 ± 0.091.
Under LGGAVLSRFGAR stands 0.738 ± 0.047; under LGGGGGVECRVG, 0.672 ± 0.058; under LGGGGRGFAGRK, 0.618 ± 0.029.
As for LGGGSGCVEGGL, the protein stability index came out at 0.713 ± 0.082.
Regarding LGGRNNRQMSSG, the protein stability index amounted to 0.678 ± 0.11.
Sequence LGGVGSSGDVVA yielded a protein stability index of 0.648 ± 0.017.
The result for LGGWWVWSWGRG reads 0.66 ± 0.023; that for LGHVHLIGDIVC, 0.7042 ± 0.0039.
For LGKAVSDMDETH, the protein stability index amounted to 0.687 ± 0.026.
Turning to LGLMSSCFSMWC, the protein stability index amounted to 0.657 ± 0.15.
Under LGLSLPCRGFTL stands 0.682 ± 0.0073; under LGMMIPQILDFV, 0.586 ± 0.014.
As for LGNFENDEGSQK, the protein stability index was 0.735 ± 0.026.
Sequence LGRCSTLLYCGP displayed a protein stability index of 0.669 ± 0.03.
Sequence LGRGRGGPLSGG returned a protein stability index of 0.7014 ± 0.003.
Sequence LGRPCGGVAGEQ registered a protein stability index of 0.637 ± 0.014.
Under LGRSGCRGGYVG stands 0.622 ± 0.014.
With LGRSRYADVQFC, the protein stability index was 0.77 ± 0.021.
The result for LGSGGLMEPWCG reads 0.644 ± 0.11; that for LGSGSTQGWAGG, 0.667 ± 0.035.
Regarding LGVGGGGRGVRG, the protein stability index was 0.728 ± 0.12.
Under LGVGGRWVAPGA stands 0.678 ± 0.094; under LGVLGGWRRFGV, 0.72 ± 0.031; under LGVLRALLGEGM, 0.688 ± 0.033.
The result for LGVWGGGRGVRG reads 0.7206 ± 0.0051; that for LHAHTAPAHPKT, 0.689 ± 0.0087; that for LHGDLLFSVYVL, 0.597 ± 0.083.
For the sequence LHHPPSTHRGPD, the protein stability index came to 0.711 ± 0.004.
In turn, LHLRPPHPPLPS showed a protein stability index of 0.717 ± 0.015.
Regarding LHLVRLEGEECL, the protein stability index is 0.677 ± 0.027.
On to LHLYPSLLLPGL, for which the protein stability index stood at 0.742 ± 0.074.
